Experimental findings from patent publication US8058228B2, “Leptin peptide antagonists” (Boston Biomedical Research Institute, priority 2004, dated 2011) are described below.

The target in this experiment is T1, IL-1R tl (Homo sapiens, UniProt P14778).
T1 construct: endogenous in cells; host or cells: Ishikawa cells
T1 sequence (P14778 18-569): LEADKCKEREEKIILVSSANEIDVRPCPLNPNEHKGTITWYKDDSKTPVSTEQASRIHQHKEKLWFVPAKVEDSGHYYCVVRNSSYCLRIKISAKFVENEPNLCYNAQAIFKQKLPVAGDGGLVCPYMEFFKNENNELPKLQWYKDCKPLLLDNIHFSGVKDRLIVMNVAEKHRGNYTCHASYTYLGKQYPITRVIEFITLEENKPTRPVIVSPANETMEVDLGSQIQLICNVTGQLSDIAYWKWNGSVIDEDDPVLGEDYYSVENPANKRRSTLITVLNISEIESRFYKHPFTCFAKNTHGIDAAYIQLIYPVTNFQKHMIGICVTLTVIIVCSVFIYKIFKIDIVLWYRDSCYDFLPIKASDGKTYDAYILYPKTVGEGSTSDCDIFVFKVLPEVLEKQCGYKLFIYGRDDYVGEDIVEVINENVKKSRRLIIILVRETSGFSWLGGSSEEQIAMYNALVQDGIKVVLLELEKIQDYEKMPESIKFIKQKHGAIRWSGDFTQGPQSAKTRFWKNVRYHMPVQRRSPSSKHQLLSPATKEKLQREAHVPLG
Kind of experiment: IL-1β and IL-1R tl inhibitors: effects on LIF-R levels in Ishikawa cells (Western blot). It is filed as cell-based. Here is the method:
Primary human endometrial cells (ESC and EEC) were cultured for 5-9 days in DMEM-F12 medium containing 5% fetal bovine serum (FBS), 5 μg/ml insulin, 1% amphopthericin B, 100 μg/ml streptomycin and 100 U/ml penicillin until they were 80% confluent. Two types of endometrial epithelial cell lines, HES (originally derived from a benign proliferative endometrium) and Ishikawa (human endometrial epithelial adenocarcinoma, ECACC 9832301, Wiltshire, England) were cultured under the same conditions described above. The cells were washed twice with 100 mM phosphate saline buffer (PBS), pH 7.2 and cultured for additional 2 days in the same medium but without FBS (basal medium). Cells were washed as described before and cultured in basal medium containing leptin (0, 3, 10 or 62 nM) or IL-1β (0.6, 3 and 10 nM). […]
Endometrial cells were washed with ice-cold PBS and lysed by homogenization on ice with lysis buffer A [[…] Tris, pH 7.4, containing 137 nM NaCl, 2 mM EDTA, 10% glycerol, 50 mM β-glycerophosphate, 1% Nonidet P-40 and a mixture of proteases and phosphatase inhibitors composed of 100 μM antipain, 0.1 mg/ml trypsin inhibitor, protease inhibitor cocktail 1:50 (Sigma), 50 nM NaF, 2 mM phenyl-methylsulfonyl fluoride, and 2 mM sodium orthovanadate]. […] Protein concentrations were determined using the Bradford protein assay (BioRad Laboratories Inc., Hercules, Calif.). […]

Take “IL-1Ra: human recombinant IL-1 receptor antagonist (R&D Systems), inhibitor of IL-1R tl”: the “effect on leptin-induced increase in LIF-R levels” value (IL-1Ra 1000 pg/ml or anti IL-1R tl antibody 20 μg/ml) is “partially blocked”. In the case of “IL-1β: human recombinant IL-1β (R&D Systems)”, under “IL-1β 3 and 10 nM, dose dependent”, the “LIF-R levels after IL-1β” value is recorded as “increased the levels of LIF-R”.
